According to paper PMC4457860, “In Vitro Interaction of the Housekeeping SecA1 with the Accessory SecA2 Protein of Mycobacterium tuberculosis” (PLoS ONE, 2015):

Legend:
[1] = biological target: Mycobacterium tuberculosis SecA1(S945C) labeled with Cy5 (Mycobacterium tuberculosis strain H37Rv) (UniProt P9WGP5); test: MST; as the low salt experiment, but at moderate salt concentration (150 mM KCl); dimer to monomers
[2] = biological target: Mycobacterium tuberculosis SecA2(S802C) labeled with Cy5 (Mycobacterium tuberculosis strain H37Rv) (UniProt P9WGP3); test: MST; Monolith NT.115; unlabeled protein (1 nM to 5 μM) titrated into 25 nM Cy5-labeled protein, mixed in 300 mM KCl, then diluted into low salt buffer (25 mM HEPES-KOH pH 7.5, 30 mM KCl, 2 mM MgCl2, 50 mM arginine); Hill fit, apparent Kd; dimer to monomers
[3] = biological target: Mycobacterium tuberculosis SecA1(S945C) labeled with Cy5 (Mycobacterium tuberculosis strain H37Rv) (UniProt P9WGP5); test: as above
[4] = biological target: Mycobacterium tuberculosis SecA1(S945C) labeled with Cy5, P9WGP5; test: fluorescence cross-correlation spectroscopy (FCCS); SecA1-Cy5 and SecA2-AF488 mixed 1:1 in 300 mM KCl, exchanged on NAP5 into 25 mM HEPES-KOH pH 7.5, 30 mM KCl, 2 mM MgCl2, 50 mM arginine; 10 min at room temperature; LSM710 confocal microscope; settings: other: fluorescence cross-correlation spectroscopy (FCCS)
[5] = biological target: T1, Mycobacterium tuberculosis SecA2(S802C) labeled with Cy5 (Mycobacterium tuberculosis strain H37Rv, UniProt P9WGP3 31-808, S802C, Cy5 (Cy5-maleimide label)); test: MST; Monolith NT.115; unlabeled protein (1 nM to 5 μM) titrated into 25 nM Cy5-labeled protein, mixed in 300 mM KCl, then diluted into low salt buffer (25 mM HEPES-KOH pH 7.5, 30 mM KCl, 2 mM MgCl2, 50 mM arginine); Hill fit, apparent Kd; dimer to monomers; settings: both partners purified
T1 construct: also called SecA2-Cy5; PIP154
T1 sequence: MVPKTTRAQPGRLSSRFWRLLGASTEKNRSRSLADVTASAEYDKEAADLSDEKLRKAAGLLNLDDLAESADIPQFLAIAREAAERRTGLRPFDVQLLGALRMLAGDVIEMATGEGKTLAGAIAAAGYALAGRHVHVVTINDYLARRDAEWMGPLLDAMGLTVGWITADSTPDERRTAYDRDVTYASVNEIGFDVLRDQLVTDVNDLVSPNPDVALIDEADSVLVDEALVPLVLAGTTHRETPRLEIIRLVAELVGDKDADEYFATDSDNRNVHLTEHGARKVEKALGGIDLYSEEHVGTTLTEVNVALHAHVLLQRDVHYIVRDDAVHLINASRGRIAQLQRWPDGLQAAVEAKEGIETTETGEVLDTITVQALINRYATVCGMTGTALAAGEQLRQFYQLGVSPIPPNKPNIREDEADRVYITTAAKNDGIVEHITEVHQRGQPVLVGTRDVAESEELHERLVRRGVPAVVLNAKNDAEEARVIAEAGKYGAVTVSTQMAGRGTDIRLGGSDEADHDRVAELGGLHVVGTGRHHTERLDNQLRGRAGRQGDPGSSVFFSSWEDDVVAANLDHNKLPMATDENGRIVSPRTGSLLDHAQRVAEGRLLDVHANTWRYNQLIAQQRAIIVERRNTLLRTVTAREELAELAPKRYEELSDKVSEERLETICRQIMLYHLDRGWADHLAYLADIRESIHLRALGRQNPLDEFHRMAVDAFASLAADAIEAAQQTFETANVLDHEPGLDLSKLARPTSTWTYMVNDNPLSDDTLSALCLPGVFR

[6] = biological target: Mycobacterium tuberculosis SecA1(S945C) labeled with Cy5 (Mycobacterium tuberculosis strain H37Rv) (UniProt P9WGP5); test: as above; remark: listed apart in the source
[7] = biological target: T1, Mycobacterium tuberculosis SecA2(S802C) …; test: MST; as the low salt experiment, but at moderate salt concentration (150 mM KCl); dimer to monomers; settings: both partners purified

Question: With “Mycobacterium tuberculosis SecA1 (unlabeled) (from UniProt P9WGP5 1-949) (natural protein)” as the molecule, how does the Kd [1] read?
Answer: The Kd was 298 nM.

Question: What about the Kd [2] of the same molecule?
Answer: The Kd was 438 nM.

Question: And the Kd [3]?
Answer: The Kd was 65 nM.

B1: Mycobacterium tuberculosis SecA2(S802C) labeled with AlexaFluor 488 (protein)
chain: MVPKTTRAQPGRLSSRFWRLLGASTEKNRSRSLADVTASAEYDKEAADLSDEKLRKAAGLLNLDDLAESADIPQFLAIAREAAERRTGLRPFDVQLLGALRMLAGDVIEMATGEGKTLAGAIAAAGYALAGRHVHVVTINDYLARRDAEWMGPLLDAMGLTVGWITADSTPDERRTAYDRDVTYASVNEIGFDVLRDQLVTDVNDLVSPNPDVALIDEADSVLVDEALVPLVLAGTTHRETPRLEIIRLVAELVGDKDADEYFATDSDNRNVHLTEHGARKVEKALGGIDLYSEEHVGTTLTEVNVALHAHVLLQRDVHYIVRDDAVHLINASRGRIAQLQRWPDGLQAAVEAKEGIETTETGEVLDTITVQALINRYATVCGMTGTALAAGEQLRQFYQLGVSPIPPNKPNIREDEADRVYITTAAKNDGIVEHITEVHQRGQPVLVGTRDVAESEELHERLVRRGVPAVVLNAKNDAEEARVIAEAGKYGAVTVSTQMAGRGTDIRLGGSDEADHDRVAELGGLHVVGTGRHHTERLDNQLRGRAGRQGDPGSSVFFSSWEDDVVAANLDHNKLPMATDENGRIVSPRTGSLLDHAQRVAEGRLLDVHANTWRYNQLIAQQRAIIVERRNTLLRTVTAREELAELAPKRYEELSDKVSEERLETICRQIMLYHLDRGWADHLAYLADIRESIHLRALGRQNPLDEFHRMAVDAFASLAADAIEAAQQTFETANVLDHEPGLDLSKLARPTSTWTYMVNDNPLSDDTLSALCLPGVFR
Question: B1 was tested. Which “percent of all proteins co-migrating as heterodimers” value [4] did it give?
Answer: Its value is 12% of all proteins co-migrated as heterodimers.

B2: Mycobacterium tuberculosis SecA2 (unlabeled) (natural protein)
chain: MVPKTTRAQPGRLSSRFWRLLGASTEKNRSRSLADVTASAEYDKEAADLSDEKLRKAAGLLNLDDLAESADIPQFLAIAREAAERRTGLRPFDVQLLGALRMLAGDVIEMATGEGKTLAGAIAAAGYALAGRHVHVVTINDYLARRDAEWMGPLLDAMGLTVGWITADSTPDERRTAYDRDVTYASVNEIGFDVLRDQLVTDVNDLVSPNPDVALIDEADSVLVDEALVPLVLAGTTHRETPRLEIIRLVAELVGDKDADEYFATDSDNRNVHLTEHGARKVEKALGGIDLYSEEHVGTTLTEVNVALHAHVLLQRDVHYIVRDDAVHLINASRGRIAQLQRWPDGLQAAVEAKEGIETTETGEVLDTITVQALINRYATVCGMTGTALAAGEQLRQFYQLGVSPIPPNKPNIREDEADRVYITTAAKNDGIVEHITEVHQRGQPVLVGTRDVAESEELHERLVRRGVPAVVLNAKNDAEEARVIAEAGKYGAVTVSTQMAGRGTDIRLGGSDEADHDRVAELGGLHVVGTGRHHTERLDNQLRGRAGRQGDPGSSVFFSSWEDDVVAANLDHNKLPMATDENGRIVSPRTGSLLDHAQRVAEGRLLDVHANTWRYNQLIAQQRAIIVERRNTLLRTVTAREELAELAPKRYEELSDKVSEERLETICRQIMLYHLDRGWADHLAYLADIRESIHLRALGRQNPLDEFHRMAVDAFASLAADAIEAAQQTFETANVLDHEPGLDLSKLARPTSTWTYMVNDNPLSDDTLSALSLPGVFR
notes: No tag; molecular mass 85 kDa on SDS-PAGE; also called PIP152
Question: Which results are given for B2?
Answer: Kd [5]: 161 ± 6.2 nM; Kd [6]: 378 nM; Kd [7]: 618 ± 36.5 nM
